Experimental data: publication PMC4522062, “Obatoclax is a direct and potent antagonist of membrane-restricted Mcl-1 and is synthetic lethal with treatment that induces Bim” (BMC Cancer, 2015)

B1: N-Flag-human Bak C14A, C166A, ΔC186-211, with a carboxyl-terminal hexa-His tag and a terminal Cys (domain or fragment, UniProt Q16611 1-185, looked up)
chain: MASGQGPGPPRQEAGEPALPSASEEQVAQDTEEVFRSYVFYRHQQEQEAEGVAAPADPEMVTLPLQPSSTMGQVGRQLAIIGDDINRRYDSEFQTMLQHLQPTAENAYEYFTKIATSLFESGINWGRVVALLGFGYRLALHVYQHGLTGFLGQVTRFVVDFMLHHAIARWIAQRGGWVAALNLGN
modifications: terminal Cys linked covalently to the liposome lipid Mal-PEG3-PE (where that lipid was included)
notes: Bak, human; the C-terminal TM segment (ΔC186-211) replaced by 6 His residues and a unique terminal Cys; The pET151 vector may add further N-terminal residues; also called BakΔC*; surface anchored Bak; source: E. coli BL21Star (pET151 vector), purified from the soluble extract on Ni2+-NTA resin; not shown: His6 followed by a terminal Cys, C-terminal, kept

Assays:
[1] = target: N-Flag-human Mcl-1 C16A, C286A, Δ328-361, with a carboxyl-terminal hexa-His tag and a terminal Cys (human) (UniProt Q07820)
Sequence of N-Flag-human Mcl-1 C16A, C286A, Δ328-361, with a carboxyl-terminal hexa-His tag and a terminal Cys (human) (Q07820 1-327 C16A/C286A): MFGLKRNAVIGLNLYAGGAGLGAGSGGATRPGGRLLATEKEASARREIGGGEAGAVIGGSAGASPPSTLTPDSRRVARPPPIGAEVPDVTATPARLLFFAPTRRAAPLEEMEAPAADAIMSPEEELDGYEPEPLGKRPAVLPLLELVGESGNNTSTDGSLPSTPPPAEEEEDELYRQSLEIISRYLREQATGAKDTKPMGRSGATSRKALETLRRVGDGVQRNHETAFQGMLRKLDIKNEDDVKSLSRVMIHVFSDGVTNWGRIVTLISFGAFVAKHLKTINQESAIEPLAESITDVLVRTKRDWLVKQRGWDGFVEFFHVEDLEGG

[2] = target: the molecule itself; assay: cross-linking; Bak conjugated onto liposomes (2 mol% Mal-PEG3-PE, 1 mol% DOGS-NTA-Ni, 2 mg lipid/ml), 100 mM KCl, 10 mM Hepes pH 7.0, 1 h at room temperature with Bim BH3 peptide (…-OH); proteoliposomes recovered by centrifugation; 0.5 mM BS3, 1 h at room temperature; SDS-PAGE and anti-Bak immunoblot

Molecule	tBid-induced (40 nM), Bak-dependent calcein release from proteoliposomes: molar excess of Noxa BH3 peptide relative to Mcl-1 that overcame the inhibition by Mcl-1 (molar excess relative to Mcl-1) [1]	binding result [2]
Noxa BH3 peptide	2.5	–
B1	–	binds
